# Reference: publication PMC9822811 (2023)
# B1: REGN10987 (antibody, V domains shown)
# VH: QVQLVESGGGVVQPGRSLRLSCAASGFTFSNYAMYWVRQAPGKGLEWVAVISYDGSNKYYADSVKGRFTISRDNSKNTLYLQMNSLRTEDTAVYYCASGSDYGDYLLVYWGQGTLVTVSS
# VL: QSALTQPASVSGSPGQSITISCTGTSSDVGGYNYVSWYQQHPGKAPKLMIYDVSKRPSGVSNRFSGSKSGNTASLTISGLQSEDEADYYCNSLTSISTWVFGGGTKLTVL
# Target: recombinant SARS-CoV-2 RBD of original WT strain (SARS-CoV-2, UniProt P0DTC2 319-541)
# Experiment: SPR
binder,measurement,value
B1,Kd,1.62 nM
